Measurements from patent US20260263563A1, “Method of Treatment of a Thoracolumbar Deformity in a Human Subject with Achondroplasia” (Ascendis Pharma Growth Disorders A/S, priority 2023, published 2026).
Where two headings read alike, the source gives them in different places.

How the values were obtained:
Fgfr3^Y367C/+ mice = system: Fgfr3^Y367C/+ mice
Excerpt: The Y367C mutation was introduced into exon 9 of the mouse Fgfr3 gene along with a NEO cassette flanked by LoxP recombination sites. Due to the CMV promoter, the expression of the Fgfr3 Fgfr3^Y367C/+ is ubiquitous. Off-spring consisted of both Fgfr3^Y367C/+ and Fgfr3+/+ wild-type (WT) littermates.
Survival of pups was monitored daily during the 15 days of treatment and registered in treatment diaries.

[1] = Procedure: A population PK model was used to characterize the sparse PK data.
Blood samples for determination of CNP-38 were acidified immediately after collection, using citrate acid buffer, to stabilize the prodrug in the sample thereby avoiding further liberation of CNP-38 from the prodrug. CNP-38 was determined in plasma (heparin) following protein precipitation and solid phase extraction and analyzed using liquid chromatography and tandem mass spectrometry detection. CNP-38 (38 amino acid peptide) was used as reference material and CNP-38 labelled with deuterium (D30-CNP-38) as internal standard (IS). Positive ions were monitored in multiple-reaction monitoring mode. The quantification was performed using the peak area ratios of analyte versus IS. The calibration curve fitting was done by 1/concentration-weighted linear regression.
During the trial, sparse blood samples were collected at different time points in the dosing interval, and the concentration of free CNP-38 was determined using the methodology described in example 6.
The values are provided as pmol/L CNP-38. […] The lower value in the range is the lowest free CNP-38 concentration, also referred to as the trough level or trough concentration. The number of subjects contributing with observations at the specified time interval are: 4, 8, 10 and 6 for the 6, 20, 50 and 100 μg/kg dose groups, respectively.

[2] = system: healthy adult male subjects

Navepegritide [Compound (1)]
tolerability, adverse clinical signs (Fgfr3^Y367C/+ mice; Fgfr3^Y367C/+ pups, 15 days of treatment): well tolerated, and no adverse clinical signs were observed | Number of mice surviving to day 15 (Fgfr3^Y367C/+ mice; Fgfr3^Y367C/+ pups, 5.6 mg/kg/day s.c., 15 days from day 1 after birth, 14 mice included): 12 | Number of mice surviving to day 15 (Fgfr3^Y367C/+ mice; Fgfr3^Y367C/+ pups, […] third day s.c., 13 mice included): 11 | survival of pups compared with untreated pups (Fgfr3^Y367C/+ mice; either dose level, P<0.05, Log-rank (Mantel-Cox) test, untreated = vehicle treated and historic survival combined): significantly improved survival | registered incidence of maternal infanticide (Fgfr3^Y367C/+ mice; treated groups): marked reduction | Estimated half-life for free CNP ([1]; 6 μg/kg/week): 101 h | Free CNP-38, Mean (SD) ([1]; 6 μg/kg/week, 6.5 to 7.5 days after last dose): 1.7 (0.2) pmol/L | Free CNP-38, Median (range) ([1]; 6 μg/kg/week, samples 6.5 to 7.5 days after last dose (trough), 4 subjects): 1.7 (1.4-1.9) pmol/L | Estimated half-life for free CNP ([1]; 20 μg/kg/week): 106 h | Free CNP-38, Mean (SD) ([1]; 20 μg/kg/week, 6.5 to 7.5 days after last dose): 2.9 (9.7) pmol/L | Free CNP-38, Median (range) ([1]; 20 μg/kg/week, 6.5 to 7.5 days after last dose, 8 subjects): 2.9 (1.6-4.2) pmol/L | Estimated half-life for free CNP ([1]; 50 μg/kg/week): 108 h | Free CNP-38, Mean (SD) ([1]; 50 μg/kg/week, 6.5 to 7.5 days after last dose): 7.2 (2.5) pmol/L | Free CNP-38, Median (range) ([1]; 50 μg/kg/week, 6.5 to 7.5 days after last dose, 10 subjects): 6.5 (4-16.9) pmol/L | Estimated half-life for free CNP ([1]; 100 μg/kg/week): 110 h | Free CNP-38, Mean (SD) ([1]; 100 μg/kg/week, 6.5 to 7.5 days after last dose): 14 (4.2) pmol/L | Free CNP-38, Median (range) ([1]; 100 μg/kg/week, 6.5 to 7.5 days after last dose, 6 subjects): 13.8 (9.4-23) pmol/L | Free CNP-38, Median (range) ([1]; 150 μg/kg/week, simulated with a population PK model): 22.3 (19.7-25) pmol/L | exposure across dosing cohorts ([1]; 6, 20, 50 and 100 μg/kg): dose related increase in exposure | Predicted median free CNP Cmax, Median (9-95th percentile) ([1]; BW 10 kg, 6 μg/kg/week): 2.9 (1.6-5.0) pg/ml | Predicted median free CNP Cmax, Median (9-95th percentile) ([1]; BW 10 kg, 20 μg/kg/week): 10.4 (5.8-18.9) pg/ml | Predicted median free CNP Cmax, Median (9-95th percentile) ([1]; BW 10 kg, 50 μg/kg/week): 26.5 (15.2-48.1) pg/ml | Predicted median free CNP Cmax, Median (9-95th percentile) ([1]; BW 10 kg, 100 μg/kg/week): 53.1 (30.9-96.4) pg/ml | Predicted median free CNP Cmax, Median (9-95th percentile) ([1]; BW 35 kg, 6 μg/kg/week): 1.8 (1.1-3.3) pg/ml | Predicted median free CNP Cmax, Median (9-95th percentile) ([1]; BW 35 kg, 20 μg/kg/week): 6.6 (3.8-12.6) pg/ml | Predicted median free CNP Cmax, Median (9-95th percentile) ([1]; BW 35 kg, 50 μg/kg/week): 18.3 (10.3-31.5) pg/ml | Predicted median free CNP Cmax, Median (9-95th percentile) ([1]; BW 35 kg, 100 μg/kg/week): 36.6 (20.2-65.9) pg/ml | Preliminary mean free CNP level ([1]; Cohort 1, 6 μg/kg, WEEK 0, 0.96 days post 1st dose): 1.86 pmol/L | Preliminary mean free CNP level ([1]; Cohort 1, 6 μg/kg, WEEK 4, 27.98 days, all observations below LLOQ, set to LLOQ ([…])): 1.38 pmol/L | Preliminary mean free CNP level ([1]; Cohort 1, 6 μg/kg, WEEK 8, 55.97 days): 1.68 pmol/L | Preliminary mean free CNP level ([1]; Cohort 1, 6 μg/kg, WEEK 12, 79.02 days): 1.85 pmol/L | Preliminary mean free CNP level ([1]; Cohort 1, 6 μg/kg, WEEK 26, 181.99 days): 1.48 pmol/L | Preliminary mean free CNP level ([1]; Cohort 1, 6 μg/kg, WEEK 39, 271.94 days): 2.02 pmol/L | Preliminary mean free CNP level ([1]; Cohort 1, 6 μg/kg, WEEK 52, 363.90 days): 1.58 pmol/L | Preliminary mean free CNP level ([1]; Cohort 2, 20 μg/kg, WEEK 0, 1.01 days): 3.49 pmol/L | Preliminary mean free CNP level ([1]; Cohort 2, 20 μg/kg, WEEK 4, 27.94 days): 3.27 pmol/L | Preliminary mean free CNP level ([1]; Cohort 2, 20 μg/kg, WEEK 8, 56.27 days): 3.79 pmol/L | Preliminary mean free CNP level ([1]; Cohort 2, 20 μg/kg, WEEK 12, 84.00 days): 3.84 pmol/L | Preliminary mean free CNP level ([1]; Cohort 2, 20 μg/kg, WEEK 26, 182.00 days): 2.77 pmol/L | Preliminary mean free CNP level ([1]; Cohort 2, 20 μg/kg, WEEK 39, 273.47 days): 5.19 pmol/L | Preliminary mean free CNP level ([1]; Cohort 3, 50 μg/kg, WEEK 0, 1.00 days): 10.58 pmol/L | Preliminary mean free CNP level ([1]; Cohort 3, 50 μg/kg, WEEK 4, 27.99 days): 7.29 pmol/L | Preliminary mean free CNP level ([1]; Cohort 3, 50 μg/kg, WEEK 8, 56.00 days): 9.24 pmol/L | Preliminary mean free CNP level ([1]; Cohort 3, 50 μg/kg, WEEK 12, 83.91 days): 7.62 pmol/L | Preliminary mean free CNP level ([1]; Cohort 4, 100 μg/kg, WEEK 0, 0.99 days): 15.29 pmol/L | half-life for free CNP ([1]; population PK model, weekly s.c. dosing): ~ 110 hours | exposure to free CNP ([1]; weekly s.c. dosing): Sustained exposure to free CNP was observed | blood pressure, heart rate, or safety laboratory test results ([2]; all investigated doses): No clinically relevant dose-dependent trends were observed | mean apparent t1/2 of free CNP-38 ([2]; single s.c. dose up to 150 μg CNP/kg, dose-independent): 120 h | immunogenic response ([2]; single s.c. doses): no evidence of immunogenic response | local tolerability findings ([2]; single s.c. doses): predominantly mild to moderate redness | most commonly reported (≥10% of subjects) treatment-emergent adverse events ([2]; single s.c. doses): headache, contact dermatitis, postural dizziness, (orthostatic) tachycardia, dizziness, and orthostatic hypotension | serious adverse effects or deaths ([2]; single s.c. doses): no serious adverse effects (AEs) or deaths reported | severity of most TEAEs ([2]; single s.c. doses): mild or moderate | tolerability ([2]; single s.c. doses up to 150 μg CNP/kg, all investigated doses): generally well tolerated
